Measured values: paper PMC5787828, “NAC transcription factor JUNGBRUNNEN1 enhances drought tolerance in tomato”

B1: SlDREB2 promoter probe (dsDNA)
DNA 1: TATATGGCTGTGCTTGATCGAACTTCAAATATGATGTTACCTATGGATTA
DNA 2: TAATCCATAGGTAACATCATATTTGAAGTTCGATCAAGCACAGCCATATA
B2: SlDREB1 promoter probe (dsDNA)
DNA 1: TTATTTAGTCGAGTCGTGGCTGTTGGGATGCCGCGGAATTCAGCACGTG
DNA 2: CACGTGCTGAATTCCGCGGCATCCCAACAGCCACGACTCGACTAAATAA
B3: SlDELLA promoter probe (dsDNA)
DNA 1: ATTTTTCACACTTGACCACCACCACTTTTACTTGCCCTACTAAATCTAAA
DNA 2: TTTAGATTTAGTAGGGCAAGTAAAAGTGGTGGTGGTCAAGTGTGAAAAAT

Target: T1, AtJUB1-GST (Arabidopsis thaliana, UniProt Q9SK55 1-275)
T1 sequence: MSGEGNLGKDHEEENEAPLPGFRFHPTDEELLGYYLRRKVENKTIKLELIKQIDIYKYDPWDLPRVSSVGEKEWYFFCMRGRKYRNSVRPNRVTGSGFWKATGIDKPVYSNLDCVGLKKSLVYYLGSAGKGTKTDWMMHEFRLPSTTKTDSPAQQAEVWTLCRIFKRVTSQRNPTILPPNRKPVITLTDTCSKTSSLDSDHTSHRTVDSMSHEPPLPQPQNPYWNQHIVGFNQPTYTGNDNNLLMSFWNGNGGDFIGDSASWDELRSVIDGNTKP
Test: EMSA; abolished by 100x unlabelled competitor; Odyssey Infrared EMSA kit (LI-COR); buffer, salt, pH and temperature not stated
Conditions: protein: recombinant; tags: GST (pDEST24 fusion); chain copies: 2; label: 5'-DY682; blunt

Row | Binder | binding result
1 | B1 | binds
2 | B2 | binds
3 | B3 | binds
